These results are taken from patent US20040235062A1, “Method of analyzing protein occurring in cell or substance interacting with the protein” (priority 2002, published 2004).

For the experiment, the target named is T1, GC-A receptors (Homo sapiens, UniProt P16066).
T1 construct: expressed in transfected cells; host or cells: CHO/GC-A cells (Chinese hamster ovary), membrane fraction
T1 sequence (P16066 33-1061): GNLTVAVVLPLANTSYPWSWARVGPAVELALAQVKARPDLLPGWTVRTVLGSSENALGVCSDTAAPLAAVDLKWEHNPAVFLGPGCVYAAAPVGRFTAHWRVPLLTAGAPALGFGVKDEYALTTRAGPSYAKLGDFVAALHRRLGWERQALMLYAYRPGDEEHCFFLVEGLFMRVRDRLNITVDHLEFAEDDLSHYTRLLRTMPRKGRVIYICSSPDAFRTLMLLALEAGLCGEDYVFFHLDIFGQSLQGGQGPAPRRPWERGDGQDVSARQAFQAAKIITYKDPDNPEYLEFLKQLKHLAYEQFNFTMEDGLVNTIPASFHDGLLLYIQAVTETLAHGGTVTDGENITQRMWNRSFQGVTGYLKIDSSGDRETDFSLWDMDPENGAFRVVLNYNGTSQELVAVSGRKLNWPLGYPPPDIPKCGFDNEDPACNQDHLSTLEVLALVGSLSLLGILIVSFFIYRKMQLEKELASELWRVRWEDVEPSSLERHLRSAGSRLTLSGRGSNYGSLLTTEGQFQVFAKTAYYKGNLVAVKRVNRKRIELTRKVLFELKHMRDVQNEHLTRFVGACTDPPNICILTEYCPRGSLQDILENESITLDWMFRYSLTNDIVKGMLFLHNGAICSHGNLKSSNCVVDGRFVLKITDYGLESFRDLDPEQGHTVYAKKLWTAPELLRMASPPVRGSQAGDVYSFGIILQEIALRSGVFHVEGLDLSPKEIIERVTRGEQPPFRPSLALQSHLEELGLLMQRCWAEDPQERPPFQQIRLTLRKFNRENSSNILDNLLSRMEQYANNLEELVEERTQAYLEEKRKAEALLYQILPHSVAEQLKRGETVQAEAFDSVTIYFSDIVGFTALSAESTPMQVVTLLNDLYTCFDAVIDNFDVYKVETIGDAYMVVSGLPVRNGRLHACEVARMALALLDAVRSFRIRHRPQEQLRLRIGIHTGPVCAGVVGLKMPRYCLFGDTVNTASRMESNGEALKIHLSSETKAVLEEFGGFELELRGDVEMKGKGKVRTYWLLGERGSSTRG
The experiment in a line: Selectivity experiment: peptide mixture bound to GC-A expressed cell membrane fraction, MALDI-TOF-MS. The settings on record: 10 pmol/μl each, CHO/GC-A vs CHO host cell membrane fraction. The class given is binding.
Description: An albumin-coated membrane fraction (CHO/GC-A cells and CHO host cells) was obtained in the same manner as in Step 1. and Step 2. of Example 1.
The resulting suspension was centrifuged to obtain pellets. The resulting pellets were further washed with 500 μl of distilled water, and centrifugation was performed again to obtain a ligand-bound membrane fraction.
MALDI-TOF-MS measurement was made in the same manner as in Step 4. of Example 1.
Take “angiotensin I (DRVYIHPFHL; Angiotensin-1; UniProt P01019 25-34, looked up)”: the “interaction with GC-A receptors (judgement)” value (“interaction” below) was “do not interact with GC-A receptors”.

Take melanocyte-stimulating hormone [α-MSH]: the “interaction” value is given as “do not interact with GC-A receptors”.

For substance P, the “interaction” value is on record as “do not interact with GC-A receptors”.
